Columns and labels:
Rat2 cells = test: Cell growth inhibiting activity in rat fibroblast cell line Rat2 (MTT method); format: cell-based; conditions: 1.5 µg/ml; compared with LP6 to LP10
Description: The assay of growth inhibiting activity using the rat fetal fibroblast as above mentioned has an insufficient sensitivity and needs complicated operations; therefore, a higher sensitive assay of the growth inhibiting activity using rat fibroblasts, Rat2 cells, was established. This assay will be described hereinbelow.
Rat fibroblast cell line Rat2 (ATCC CRL-1764) was cultured in Eagle MEM medium containing 10% bovine serum (Science, 130, 432 (1959)) in the presence of 5% carbon dioxide at 37°C.
The number of Rat2 cells can be measured by any method which can be used for quantitative determination of cell growth. […] Procedures for quantitatively determining the number of cells by the MTT method and assaying the cell growth inhibiting activity of a sample will be described herein. […]
Thereafter, PBS containing 1 to 10 mg/ml, preferably 5 mg/ml, of MTT reagent is added at 1 to 100 µl/well, preferably 10 µl/well, and further incubated for 1 to 8 hours, preferably 4 hours. […] The absorbance of the dissolved formazan dye at 540 nm is measured to thereby quantitatively determine the number of cells. […]
The number of Rat2 cells may be measured by any method which can be used to determine cell growth in a quantitative manner. The number of cells was quantitatively determined by the MTT method herein to measure the cell growth inhibiting activity in the liver perfusates LP6 to LP10. […]

[1] = Arginase activity assay (Garganta and Bond); format: biochemical; conditions: purified preparation
Description: The elution of protein was monitored by measuring absorbance at 280 nm. Effluents were collected by a fraction collector and each fraction was estimated according to the method of measuring arginase activity as reported by Garganta and Bond: Analytical Biochemistry, 154, 388 (1986).
The SP-Sepharose human arginase fraction contained 1360 mg of proteins and the purity of human arginase was 90% or higher. […] The amount of proteins herein means the value calculated as bovine serum albumin using BIO-RAD protein assay kit.

[2] = Arginine concentration in blood (plasma) after administration to rats; format: in vivo, SD rats; conditions: 0.5 ml of 200 µg/ml per rat into penis veniplex; 1, 3, 6, 24 hours and 1 to 14 days
Description: 2. Kinetics of PEG modified rat arginase in rat blood
Male SD rats (body weight of 220 to 240 G) were purchased from Nippon SLC and tested after about 1 week breeding. […] After inhalation anesthesia with diethyl ether, each sample was administered to penis veniplex at a dose of 0.5 ml per rat by means of a disposable plastic syringe (Terumo).
To determine the change with the passage of time, the blood was taken from the same individual at 1, 3, 6 and 24 hours or 1, 3, 7, 10 and 14 days. The animals were bled from the tail veins at 0.3 ml per animal by a method that causes a minimum effect on the animals. Each rat was fixed in a retaining trap (Natsume Seisakusho) so that it could move only the tail freely, and a disposable injection needle (Terumo, 23x1" ) was cut at the part connecting to the syringe and inserted into the tail vein. The vein blood dripped from the cut end was received in a sample tube (Eppendorph, volume of 1.5 ml) containing 10 µl of 5% EDTA.2K solution as an anticoagulant. After slightly shaking to confirm the absence of coagulation, the blood was centrifuged at 3,000 rpm for 10 minutes to yield plasma. The plasma sample was freezed and stored at -80°C until analysis. Prior to use, the sample was thawed and centrifuged at 3,000 rpm for 10 minutes to remove insoluble matters. […]

B1: PEG modified rat arginase: recombinant rat arginase modified with methoxy polyethylene glycol propionic acid N-hydroxysuccinimide ester, average molecular weight about 5,000 (conjugate, UniProt P07824 1-323, looked up)
Arginase-1: MSSKPKPIEIIGAPFSKGQPRGGVEKGPAALRKAGLVEKLKETEYNVRDHGDLAFVDVPNDSPFQIVKNPRSVGKANEQLAAVVAETQKNGTISVVLGGDHSMAIGSISGHARVHPDLCVIWVDAHTDINTPLTTSSGNLHGQPVAFLLKELKGKFPDVPGFSWVTPCISAKDIVYIGLRDVDPGEHYIIKTLGIKYFSMTEVDKLGIGKVMEETFSYLLGRKKRPIHLSFDVDGLDPVFTPATGTPVVGGLSYREGLYITEEIYKTGLLSGLDIMEVNPTLGKTPEEVTRTVNTAVALTLSCFGTKREGNHKPETDYLKPPK
modifications: methoxy PEG 5000 conjugated
With B1 the “rat fibroblast Rat-2 growth inhibiting activity” value (Rat2 cells) was “identical with that obtained when 1.25% LP6 to LP10 were added”, the arginase activity [1] was 2358 U/ml and the “arginine concentration in blood” value [2] was “Sustained inhibiting effects”.

Source: EP0956864A1, “TISSUE FIBROSIS INHIBITOR” (KYOWA HAKKO KOGYO CO., LTD., priority 1996, dated 1998)
